Reference: US10925971B2, “Methods of treating PRLR positive breast cancer” (Regeneron Pharmaceuticals, Inc., priority 2016, dated 2021)

Key:
PC3/PRLR tumors = assay: PC3/PRLR xenograft, tumor size and tumor growth inhibition; type: in vivo, SCID mice
From the text: (§1) Briefly, 20×10^6 MCF7/PRLR cells (ATCC HTB-22 transfected with full length hPRLR as previously described) were implanted subcutaneously into the left mammary fat pad of female NCr nude mice. In other studies, 10×10^6 PC3/PRLR (ATCC CRL-1435 transfected with full length hPRLR as previously described) were implanted subcutaneously into the left flank of male SCID mice. Additionally, 10×10^6 parental T47D (ATCC HTB-133) or 7.5×10^10 T47D #11 cells (ATCC HTB-133 serially passaged in vivo as described below) were subcutaneously implanted into the left flank of female CB17 SCID mice. All mice were obtained from Taconic (Hudson, N.Y.). Each bolus of cells was supplemented with a 90-day estrogen release pellet (1.7 mg/pellet; Innovative Research America, Sarasota Fla.). […] Control reagents included PBS vehicle, free methyl-disulfide DM1 (DM1-SMe) and isotype Control 1-DM1.
(§2) In multi-dose studies, mice were dosed once a week for a total of three weeks with tumor volumes and body weights being monitored twice weekly throughout the study. Test ADCs were dosed at 5 and/or 15 mg/kg in the multi-dose studies. In single-dose studies, mice received a single dose of test ADC, and tumor volumes and body weights were monitored twice weekly throughout the study. Test ADCs were dosed at 1, 2.5, 5, and 15 mg/kg in the single-dose studies. Average tumor size as well as tumor growth inhibition relative to the vehicle treated group were calculated for each group. Tumors were measured with calipers twice a week until the average size of the vehicle group reached 1000 mm^3. Tumor size was calculated using the formula (length×width^2)/2. Tumor growth inhibition was calculated according to the following formula: (1−((Tfinal−Tinitial)/(Cfinal−Cinitial)))*100, where T (treated group) and C (control group) represent the mean tumor mass on the day the vehicle group reached 1000 mm^3. […] Results are summarized in Tables 21-25 (multi-dose) and Table 26 (single dose). (NT=not tested in the particular experiment shown).

PC3 cells = assay: In vitro cell viability (cell kill) assay, CCK8; type: cell-based, human
From the text: (§3) PRLR-overexpressing cells, including HEK293, PC3, MCF7 and NCI-N87, were generated to assess the ability of anti-PRLR conjugated antibodies to reduce cell viability. For comparative purposes, PC3 and T47D cells with overexpressed ErbB2 were also generated, as well as an MCF7 cell line over-expressing both hPRLR and hErbB2. Briefly, Lipofectamine® 2000-mediated transfection methodology was utilized to generate HEK293 cells expressing human PRLR (HEK293/hPRLR) or human ErbB2 (HEK293/hErbB2). Lipofectamine LTX with Plus Reagent was used to generate PC3 cells expressing human PRLR (PC3/hPRLR) or human ErbB2 (PC3/hErbB2). Lentiviral-mediated transduction was utilized to generate MCF7 cells expressing human PRLR (MCF7/hPRLR), NCI-N87 cells expressing human PRLR (NCI-N87/hPRLR), T47D cells over-expressing human ErbB2 (T47D/hErbB2), and MCF7 cells expressing both human PRLR and human ErbB2 (MCF7/hPRLR/hErbB2). All lines were selected for at least two weeks in complete growth media plus appropriate selection reagents. Stably expressing populations were enriched for PRLR expression via FACS using the anti PRLR antibody Control I.
(§4) Next, the ability of anti-PRLR-DM1 antibody-drug conjugates (i.e., anti-PRLR antibodies conjugated to DM1 via a non-cleavable linker [SMCC]) to reduce cell viability was determined using in vitro cell based assays. Cells were seeded in PDL-coated 96 well plates at 1500 to 10000 cells per well in complete growth media and allowed to grow overnight. For cell viability curves, ADCs or free DM1 (as the methyl disulfide derivative DM1-SMe) were added to the cells at final concentrations ranging from 500 nM to 5 pM and incubated for 3 days. The 293, PC3 and T47D cells were incubated with CCK8 (Dojindo, Rockville, Md.) for the final 1-3 hours and the absorbance at 450 nm (OD450) was determined on a Flexstation3 (Molecular Devices, Sunnyvale, Calif.). MCF7 cells were treated with Hoechst 33342 nuclear stain while being fixed with 4% formaldehyde. Images were acquired on the ImageXpress micro XL (Molecular Devices, Sunnyvale, Calif.) and nuclear counts were determined via Columbus image analysis software (Perkin Elmer, Shelton, Conn.). Background OD450 values (PC3, 293, and T47D) or nuclear counts (MCF7) from digitonin (40 nM) treated cells was subtracted from all wells and viability was expressed as a percentage of the untreated controls. IC50 values were determined from a four-parameter logistic equation over a 10-point response curve (GraphPad Prism).

MCF7/PRLR tumors = assay: MCF7/PRLR breast cancer xenograft, tumor size and tumor growth inhibition; type: in vivo, NCr nude mice; settings: for Average Tumor Growth Inhibition (%) / Final Tumor size mm^3 (mean ± SEM): MCF7/PRLR tumors TRIAL #1, NCr Nude mice, Day 52
From the text: as §1, §2

HEK293 (293) cells = assay: In vitro cell viability (cell kill) assay, CCK8; type: cell-based, human; settings: 293
From the text: as §3, §4

[1] = PC3/PRLR tumors TRIAL #1, SCID mice, multi-dose 5 mg/kg, Day 63

B1: H1H6975N-DM1 (conjugate)
VH: EVHLVESGGGLVQPGGSLRLSCAASGFTFSSYEMNWVRQTPGKGLEWISHISSRSVIIYYADSVKGRFTISRDNAKNSLFLQMNSLRAEDTAVYFCAGITIFGIPEYWGQGTLVTVSS
VL: EIVLTQSPATLSLSPGERATLSCRASQSVSSYFAWYQQKPGQAPRLLIYDASSRATGIPTRFSGSGSGTDFTLTISSLEPEDFAVYYCQQRSSWPITFGQGTRLEIK
PC3/PRLR tumors; [1]
  Average Tumor Growth Inhibition (%): 31%
  Final Tumor size mm^3 (mean ± SEM): 973 ± 169 mm^3
PC3/PRLR tumors; PC3/PRLR tumors TRIAL #1, SCID mice, multi-dose 15 mg/kg, Day 63
  Final Tumor size mm^3 (mean ± SEM): 895 ± 63 mm^3
PC3/PRLR tumors; multi-dose, especially at 15 mg/kg
  PC3/PRLR tumor growth: demonstrated inhibition of tumor growth
PC3 cells; Table 11, 3 days
  % Kill: 71%
MCF7/PRLR tumors; multi-dose 5 mg/kg
  Average Tumor Growth Inhibition (%): 118%
  Final Tumor size mm^3 (mean ± SEM): 125 ± 46 mm^3
MCF7/PRLR tumors; multi-dose 15 mg/kg
  Average Tumor Growth Inhibition (%): 135%
  Final Tumor size mm^3 (mean ± SEM): 0 ± 0 mm^3
MCF7/PRLR tumors; first multi-dose trial, 5 and 15 mg/kg
  MCF7/PRLR tumor growth: potently inhibited MCF7/PRLR tumor growth

B2: H1H6960N-DM1 (conjugate)
VH: EVQLVESGGGLVKPGGSLRLSCAASGITFSSYSMNWVRQAPGKGLEWVSSISTRSSLIHYADSVKGRFTISRDNAKNSLYLQMNSLRDEDTAVYYCARWDAAAAFDYWGQGTLVIVSS
VL: DIQLTQSPSFLSASVGDRVTITCWASQGISSYLAWYQQKPGKAPKLLIYVASTLQSGVPSRFSGSGSGTEFTLTISSLQPEDFATYFCQQLNSYPLTFGGGTKVEIK
PC3 cells; Table 11, 3 days
  % Kill: 80%
  IC50: 150 nM
HEK293 (293) cells; Table 11, 3 days
  IC50: 75 nM

B3: H1H6762P-DM1 (conjugate)
VH: QVQLVESGGGVVQPGRSLRLSCAASGFTFSHYGMVWVRQPPGKGLEWVALISFDGTTKYYADSVKGRFTISRDNSKNTLYLQMNSLRAEDTAVYFCVGAIAAAAFDLWGRGTLVTVSS
VL: EIVMTQSPATLSVSPGERATLSCRASQSVSSDLAWYQQKPGQAPRLLIYSASARATGIPARFTGSGSGTDFTLTISSLQSEDFAVYYCQQYNNWPMYTFGQGTKLEIK
PC3 cells; Table 11, 3 days
  % Kill: 78%
  IC50: 250 nM
HEK293 (293) cells; Table 11, 3 days
  % Kill: 89%

B4: H1H6793P-DM1 (conjugate)
VH: EVQLVESGGGLVQPGGSLRLSCAASGFSFSIYAMSWFRQAPGKGLEWVSAINGRGDGTHYADSVKGRFTISRDNSKTTLYLQMSSLRAEDTAVYYCAKPVMSTNGFDIWGQGTMVTVSS
VL: DIQMTQSPSTLSASVGDRVTITCRASQSISSWLAWYQLKPGKAPKLLIYKASNLESGVPSRFSGSGSGTEFTLTISSLQPDDFATYYCQQYNIYWTFGQGTKVEIK
PC3 cells; Table 11, 3 days
  % Kill: 72%
  IC50: 200 nM
HEK293 (293) cells; Table 11, 3 days
  % Kill: 84%
  IC50: 100 nM

B5: H1H6800P-DM1 (conjugate)
VH: EVQLVESGGGLVQPGRSLRLSCAASGFTFDGYAMHWVRQGPGKGLEWVSGISWYSDTLGYADSVKGRFTISRDNAKNSLYLQMNSLRTEDTAFYYCAKISSSGWAFDYWGQGTLVTVSS
VL: EIVLTQSPGTLSLSPGERATLSCRASHSVSSAYLAWYQQKPGQTPRLLIYGTSSRATGIPDRFSGSGSGTDFTLTISRLEPEDFAVYYCQQYGSSPLFTFGPGTKVDIK
PC3 cells; Table 11, 3 days
  % Kill: 72%

B6: H1H6953N-SMCC-DM1 (conjugate)
VH: EVQLLESGGGLVQPGGTLRLSCAASGFTFSAYAMSWVRQAPGKGLEWVSSINVRAGDTYYADSVKGRFTISRDNSKNTLFLLMNSLRAEDTAAYYCAKARYSSNWGFDFWGQGTLVTVSS
VL: DIVMTQSPDSLTVSLGARTTINCQSSQTILHSSNNHNYLAWYQQKPGLPPKLLIYWSSTRESGVPDRFSGSGSGTDFTLTISSLQAEDVAIYYCQQYSNTPYTFGQGTKLEIN
PC3 cells; Table 18
  % Kill: 81%

B7: H1H6953N-mc-VC-PAB-MMAE (conjugate)
VH: B6 VH
VL: B6 VL
PC3 cells; Table 18
  % Kill: 49%
  IC50: 130 nM

B8: H1H6765P-SMCC-DM1 (conjugate)
VH: EVQLVESGGGVVRPGGSLRLSCVGSGFSFDDHGMNWVRQGPGKGLEWVSGFNWNGGSTNYAESVKGRFTISRDNARNSLFLQMNSLRAEDTALYYCVRGRSGWFNDAFDVWGPGTMVTVSS
VL: EIVLTQSPGTLSLSPGERATLSCRASQTINSNYLAWYRQKPGQTPRLLIYGTSSRATGIPDRFSGSGSGTDFSLTISRLEPEDFAVFYCQQYAGLPTFGPGTKVDIK
PC3 cells; Table 18
  % Kill: 80%
  IC50: 80 nM

B9: H1H6765P-mc-VC-PAB-MMAE (conjugate)
VH: B8 VH
VL: B8 VL
PC3 cells; Table 18
  % Kill: 29%

B10: H1H6953N-mc-VC-PAB-MMD (conjugate)
VH: B6 VH
VL: B6 VL
HEK293 (293) cells; Table 19
  IC50: 110 nM

B11: H1H6953N-mc-VC-PAB-MeNHC3-May (conjugate)
VH: B6 VH
VL: B6 VL
HEK293 (293) cells; Table 19
  % Kill: 20%

B12: H1H6975P-mc-VC-PAB-MMD (conjugate)
VH: B1 VH
VL: B1 VL
HEK293 (293) cells; Table 19
  IC50: 110 nM

B13: H1H6782P-mc-VC-PAB-MMD (conjugate)
VH: EVQLVESGGGLVQPGRSLRLSCAASGFTFDDYAMHWVRQAPGKGLEWVSGIIWNSGHIGYGDSVKGRFTISRDNAKKSLYLQMNSLRAEDTALYYCARDSGRYQSYFDYWGQGTLVTVSS
VL: DIQMTQSPSTLSASVGDRVTITCRASHIISSWLAWYQQKPGKAPKVLIFKASSLESGVPSRFSGSGSGTEFTLTISSLQPDDFATYYCQQYNTYSRTFGQGTKVEIK
HEK293 (293) cells; Table 19
  IC50: 230 nM

B14: H1H6782P-mc-VC-PAB-MeNHC3-May (conjugate)
VH: B13 VH
VL: B13 VL
HEK293 (293) cells; Table 19
  IC50: 60 nM
